Assay [1] has as its target cell surface binding sites for HMGB1 on RAW 264.7 cells. In words: cell-based or functional assay.
In assay [2] the target is RAGE on RAW 264.7 cells (mouse (murine RAW 264.7 cells)) (UniProt Q62151). In words: cell-based or functional assay.
For assay [3], the target named is cell surface binding sites for HMGB1 on RAW 264.7 cells. In words: 125I-HMGB1 cell surface binding to RAW 264.7 cells, 2 hours at 4 C, no competitor.

Sequence of RAGE on RAW 264.7 cells (mouse (murine RAW 264.7 cells)) (Q62151 23-402): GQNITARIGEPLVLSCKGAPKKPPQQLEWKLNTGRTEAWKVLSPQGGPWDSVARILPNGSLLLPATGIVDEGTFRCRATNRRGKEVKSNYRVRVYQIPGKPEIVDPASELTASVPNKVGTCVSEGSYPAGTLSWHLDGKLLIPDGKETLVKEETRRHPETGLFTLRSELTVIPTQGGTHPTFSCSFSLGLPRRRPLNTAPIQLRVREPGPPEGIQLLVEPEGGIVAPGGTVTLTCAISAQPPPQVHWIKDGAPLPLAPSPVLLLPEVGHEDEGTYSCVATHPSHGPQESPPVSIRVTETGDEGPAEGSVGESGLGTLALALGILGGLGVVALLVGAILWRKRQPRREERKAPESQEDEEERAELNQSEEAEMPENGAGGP

On to “HMGB1 A box (Amino terminus + A Box mutant of human HMGB1) (from UniProt A9RA84 1-85)”, for which the inhibition of HMGB1 (1 µg/ml) induced TNF release from RAW 264.7 cells, apparent EC50 in assay [1] turned out to be 7.5 µg/mL. With “Recombinant full length human HMGB1 (wild type HMGB1) (from UniProt A9RA84 1-215) (ligand)”, the maximum inhibition of HMG-1 signaling (TNF release from RAW 264.7 cells) by anti-RAGE antibody in assay [2] was 40%. The total counts obtained in the absence of unlabeled HMGB1 proteins (CPM/well) in assay [3] was 2.38e+06 CPM/well.

The values are drawn from patent publication US7304034.
